Measurements as given in patent publication US20250009780A1, “AGENTS ENCODING CLDN6 AND CD3 BINDING ELEMENTS FOR TREATING CLDN6-POSITIVE CANCERS” (BIONTECH SE, priority 2021, published 2025).

Molecular target: human CD3 (human) (UniProt P09693)
Assay: cell-based or functional assay

human CD3 (human), sequence (chain, as listed by the source, chain 1 of 3): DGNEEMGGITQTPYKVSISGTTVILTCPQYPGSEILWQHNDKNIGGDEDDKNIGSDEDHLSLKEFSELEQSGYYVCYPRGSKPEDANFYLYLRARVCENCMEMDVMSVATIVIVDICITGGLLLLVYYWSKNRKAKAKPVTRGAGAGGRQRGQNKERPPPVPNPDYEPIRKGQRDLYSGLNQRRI
human CD3 (human), sequence (P09693 23-182, chain 2 of 3): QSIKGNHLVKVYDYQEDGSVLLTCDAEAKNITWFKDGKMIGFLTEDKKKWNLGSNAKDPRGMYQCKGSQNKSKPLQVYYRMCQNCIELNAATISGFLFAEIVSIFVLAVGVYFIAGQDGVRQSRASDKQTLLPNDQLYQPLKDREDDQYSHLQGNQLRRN
human CD3 (human), sequence (P04234 22-171, chain 3 of 3): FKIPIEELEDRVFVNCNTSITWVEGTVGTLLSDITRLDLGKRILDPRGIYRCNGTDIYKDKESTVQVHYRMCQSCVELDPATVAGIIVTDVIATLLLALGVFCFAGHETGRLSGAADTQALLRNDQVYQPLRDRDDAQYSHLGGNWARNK

T-cell activation (CD69/CD25, flow cytometry, 48 h): > 50%
Substance: OKT3 antibody
